What was measured:
[1] = molecular target: Human EphA2 (human) (UniProt P29317); test: IHC/IF on frozen human tumor tissue: PROC
[2] = molecular target: Human EphA2 (human) (UniProt P29317); test: IHC/IF on frozen human tumor tissue: RCC-papillary
[3] = molecular target: Human EphA2 (human) (UniProt P29317); test: IHC/IF on frozen human tumor tissue: TNBC
[4] = molecular target: Human EphA2 (human) (UniProt P29317); test: IHC/IF on frozen human tumor tissue: HNC
[5] = molecular target: Human EphA2 (human) (UniProt P29317); test: IHC/IF on frozen human tumor tissue: RCC-clear cell
[6] = molecular target: Human EphA2 (human) (UniProt P29317); test: IHC/IF on frozen human tumor tissue: Her2+ BRC
[7] = molecular target: Human EphA2 (human) (UniProt P29317); test: IHC/IF on frozen human tumor tissue: ESO
[8] = molecular target: Human EphA2 (human) (UniProt P29317); test: IHC/IF on frozen human tumor tissue: UCEC-clear cell
[9] = molecular target: Human EphA2 (human) (UniProt P29317); test: IHC/IF on frozen human tumor tissue: MELA
[10] = molecular target: Human EphA2 (human) (UniProt P29317); test: IHC/IF on frozen human tumor tissue: ANC
[11] = molecular target: Human EphA2 (human) (UniProt P29317); test: IHC/IF on frozen human tumor tissue: GAC
[12] = molecular target: Human EphA2 (human) (UniProt P29317); test: IHC/IF on frozen human tumor tissue: UCEC-endometrioid
[13] = molecular target: Human EphA2 (human) (UniProt P29317); test: IHC/IF on frozen human tumor tissue: CRC
[14] = molecular target: Human EphA2 (human) (UniProt P29317); test: IHC/IF on frozen human tumor tissue: NSCLC-Adeno
[15] = molecular target: Human EphA2 (human) (UniProt P29317); test: IHC/IF on frozen human tumor tissue: STS
[16] = molecular target: Human EphA2 (human) (UniProt P29317); test: IHC/IF on frozen human tumor tissue: ER+ BRC
[17] = molecular target: Human EphA2 (human) (UniProt P29317); test: IHC/IF on frozen human tumor tissue: URO
[18] = molecular target: Human EphA2 (human) (UniProt P29317); test: IHC/IF on frozen human tumor tissue: UCEC-papillary
[19] = molecular target: Human EphA2 (human) (UniProt P29317); test: IHC/IF on frozen human tumor tissue: PANC
[20] = molecular target: Human EphA2 (human) (UniProt P29317); test: IHC/IF on frozen human tumor tissue: OVA
[21] = molecular target: Human EphA2 (human) (UniProt P29317); test: IHC/IF on frozen human tumor tissue: NSCLC-SQ

| IHC score [1] | IHC score [2] | IHC score [3] | IHC score [4] | IHC score [5] | IHC score [6] | IHC score [7] | IHC score [8] | IHC score [9] | IHC score [10] | IHC score [11] | IHC score [12] | IHC score [13] | IHC score [14] | IHC score [15] | IHC score [16] | IHC score [17] | IHC score [18] | IHC score [19] | IHC score [20] | Substance | also measured |
| --- | --- | --- | --- | --- | --- | --- | --- | --- | --- | --- | --- | --- | --- | --- | --- | --- | --- | --- | --- | --- | --- |
| 1 | 2 | 1 | 1 | 1 | 1 | 1 | 2 | 2 | 1 | 1 | 1 | 1 | 2 | 1 | 1 | 1 | 2 | 1 | 1 | LS-B1794-50 (AA 450-500) (antibody) | IHC score [21]: 1 |
| 1 | 1 | 1 | 2 | 1 | 2 | 2 | 2 | 3 | 2 | 1 | 2 | 1 | 2 | 2 | 1 | 1 | 3 | 1 | 2 | LS-C36249-100 (extracellular) (antibody) | IHC score [21]: 2 |
| 1 | 1 | 1 | 1 | 1 | 1 | 1 | 2 | 2 | 1 | 1 | 1 | 1 | 1 | 1 | 1 | 1 | 2 | 1 | 1 | LS-C100255-400 (AA 30-60) (antibody) | IHC score [21]: 1 |
| 1 | 1 | 1 | 2 | 1 | 1 | 2 | 2 | 3 | 2 | 1 | 2 | 1 | 2 | 1 | 1 | 1 | 2 | 2 | 2 | MAB3035 (Gln25-Asn534) (antibody) | IHC score [21]: 2 |
